Measured values published in paper doi:10.1101/2021.09.13.460076.

Biological target: dimeric human ACE2 fused to Fc domain of human IgG (human) (UniProt Q9BYF1)
Experiment: SPR

Sequence of dimeric human ACE2 fused to Fc domain of human IgG (human) (Q9BYF1 18-740): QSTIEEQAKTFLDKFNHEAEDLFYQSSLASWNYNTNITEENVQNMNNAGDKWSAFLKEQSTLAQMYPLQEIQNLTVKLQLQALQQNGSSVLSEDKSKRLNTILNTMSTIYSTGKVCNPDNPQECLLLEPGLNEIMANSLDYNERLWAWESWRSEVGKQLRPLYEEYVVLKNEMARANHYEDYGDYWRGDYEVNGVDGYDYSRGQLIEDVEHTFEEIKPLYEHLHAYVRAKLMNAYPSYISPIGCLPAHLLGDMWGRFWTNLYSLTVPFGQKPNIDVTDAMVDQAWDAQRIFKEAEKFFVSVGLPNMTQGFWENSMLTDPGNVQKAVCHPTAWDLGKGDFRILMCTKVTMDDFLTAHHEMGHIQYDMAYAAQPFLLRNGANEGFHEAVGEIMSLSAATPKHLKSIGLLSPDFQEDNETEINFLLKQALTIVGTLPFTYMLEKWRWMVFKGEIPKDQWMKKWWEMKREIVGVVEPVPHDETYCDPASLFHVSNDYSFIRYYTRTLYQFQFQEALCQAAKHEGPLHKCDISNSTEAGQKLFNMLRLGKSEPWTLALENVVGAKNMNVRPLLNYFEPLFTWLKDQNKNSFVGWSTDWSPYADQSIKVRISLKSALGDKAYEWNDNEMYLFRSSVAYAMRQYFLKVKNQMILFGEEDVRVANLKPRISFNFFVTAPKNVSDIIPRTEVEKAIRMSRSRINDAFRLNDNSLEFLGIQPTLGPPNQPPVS

In the case of “ADDomer particle decorated with SARS-CoV-2 RBD (ADD-RBD) (from UniProt Q2Y0H9 1-544; P0DTC2 320-554) (complex)”, the Kd is reported as 0.309 nM.
